The nature of the data set: soluble on expression in E. coli; label from the status in PepcDB or PDB records.
Take “MGSDKIHHHHHHMQFGKTDTPEDIDFTLPKDHPDTKKILSEAKPGKHFNVYVGCAKWNKTDLKNFYPKGTKDELQYYATQFNSIELNATFYKSPSKDQVQTWKAKAAKGFKFFPKIPNTISHFKRLVGVETIVEEFCDAVVLFEENLGMSFLQMHDNFKPKDMDKLDAFLKKFPASVPLAVELRNEEWYSDKNVQDDLHAMLVKYKKTFVLVDTAARRDIMHMRLTSDKAFIRYVGANHESDYARLDDWIKRIKTWRKEGLNELYFFVHQNVELESPLLSAYFIEKMNKEFDLDLTVPQTIKKKQ”: the “soluble on expression in E. coli” value is “not soluble”. In the case of “MGIMEAERKTTGWAARDPSGILSPYTYTLRETGPEDVNIRIICCGICHTDLHQTKNDLGMSNYPMVPGHEVVGEVVEVGSDVSKFTVGDIVGVGCLVGCCGGCSPCERDLEQYCPKKIWSYNDVYINGQPTQGGFAKATVVHQKFVVKIPEGMAVEQAAPLLCAGVTVYSPLSHFGLKQPGLRGGILGLGGVGHMGVKIAKAMGHHVTVISSSNKKREEALQDLGADDYVIGSDQAKMSELADSLDYVIDTVPVHHALEPYLSLLKLDGKLILMGVINNPLQFLTPLLMLGRKVITGSFIGSMKETEEMLEFCKEKGLSSIIEVVKMDYVNTAFERLEKNDVRYRFVVDVEGSNLDA”, the “soluble on expression in E. coli” value is reported as “soluble”.

As to “MGSDKIHHHHHHMIVLSKRELFAMLPSVDEVLSDNRIVEIINEYPRSLVLESVREVIDLKRQFILRLKEDASNSVTIEFGEIIESAIERVKLNYSLSLKKVINATGTVIHTNLGRSLLSEDIKDELWCAASRYSNLEYDLDNGERGSRYSHLTSTIKRLTGAEDVLVVNNNAAAVLLVLSTMAKGGEAIVSRGELVEVGGSFRIPSIMALSGAELVEVGSTNKTHLKDYKEAITEDTNVLMKVHTSNYRIMGFTESVSIEELVNLGKKYKLPVIEDLGSGVFIDLSKYGLSYEPTVLDSIRQGADVVTFSGDKMLGGPQAGIIVGKKEYIEKMKKNQLTRALRVDKLTICALEATLRMYLDETKAIENIPTLKMLTYKIEELEVKANKLFEKITALNLNANINIEDGFSQVGGGSMPLETISTKVISITPEHMNVSSLEKKLRLSEAHIIARVYDNKYVLDVRTIFDDEFDVIVEELRKAFN”, the “soluble on expression in E. coli” value is on record as “not soluble”.

Turning to “MKSEANLRGMIDIEFYYHTCEAKKYFRNEVINYLVNLKSNVTIEMTRYWTEGADVVNHLFFCNIHGIGIPNLHGVLFQVKSYRYYSGFLLSTASQSFCG”, the “soluble on expression in E. coli” value is recorded as “not soluble”. To “MGSDKIHHHHHHMRTLKVLHLASFDGNIGDNANHNGVRFLWKKYLPEYDFAITPLEMREYFWKWKSFDDGFADMVNEYDLFVCGGGNYFELWVQSSPTGTSVAIPLEVLRKIKTPCLFYALGLDPYMGAPDICIERFKRFLDYTLASPQFLVSVRNDGSLDSARRVLGGEYADRIHLMPDGGHFVQPEACTHYELTPGARTIGVNLAGDMLDFRFKSCNGKNLNDFKRSTAAVLCDIMRRMPDVNLIFYPHIHKDYSFLADFICGIDDHLLRRRITVAPYLHGQGAERKFFDLYRQCALNIGTRLHANICSVGLKTPSIGIVTHEQIHELYGYYGMAERALRFSDDNYAAKLDDLISDSLENTERISCRYSDVMSMVTKDAERFLGIMNCWLDSVV” belongs “not soluble”.

As to “MSQEQLVAVNELNENLGKVLIKIARDSIANKLGILKINLEDYLSSLNDPILNKKGLAFVTLETYYGNSTSLRGCIGYVEAVAPLKEIVSKAAIAAAFSDPRFPPLSKGEFDNIIIEVTVLTKPQEIDVENRWELPKKIKVGEDGLIVEYGILYSGLLLPQVPMEYCWDEETFLAETCIKAGLEPDCWLNNKVKIKKFQGIIFREEKPKSEKILIIKPSEVKCKKEEISLL”, the “soluble on expression in E. coli” value is “soluble”. Regarding “LVLEGGGMRGLYTAGVLDAFLEAGIKVDGVVSVSAGALFGVNYLSNQPKRALRYNKRFMGDRRYMSFWSWLTTGNFVNKEFSYYKVPMELDVFDQDAFAESGVPFYVVATDIKTGKPDYIKIDHVFEQMEALRASSALPLVSEIVEYKGKRYMDGGLADSLPI”, the “soluble on expression in E. coli” value was “not soluble”. For the sequence “MSLKISDGNWLIQPGLNLIHPLQVFEVEQQDNEMVVYAAPRDVRERTWQLDTPLFTLRFFSPQEGIVGVRIEHFQGALNNGPHYPLNILQDVKVTIENTERYAEFKSGNLSARVSKGEFWSLDFLRNGERITGSQVKNNGYVQDTNNQRNYMFERLDLGVGETVYGLGERFTALVRNGQTVETWNRDGGTSTEQAYKNIPFYMTNRGYGVLVNHPQCVSFEVGSEKVSKVQFSVESEYLEYFVIDGPTPKAVLDRYTRFTGRPALPPAWSFGLWLTTSFTTNYDEATVNSFIDGMAERNLPLHVFHFDCFWMKAFQWCDFEWDPLTFPDPEGMIRRLKAKGLKICVWINPYIGQKSPVFKELQEKGYLLKRPDGSLWQWDKWQPGLAIYDFTNPDACKWYADKLKGLVAMGVDCFKTDFGERIPTDVQWFDGSDPQKMHNHYAYIYNELVWNVLKDTVGEEEAVLFARSASVGAQKFPVHWGGDCYANYESMAESLRGGLSIGLSGFGFWSHDIGGFENTAPAHVYKRWCAFGLLSSHSRLHGSKSYRVPWAYDDESCDVVRFFTQLKCRMMPYLYREAARANARGTPMMRAMMMEFPDDPACDYLDRQYMLGDNVMVAPVFTEAGDVQFYLPEGRWTHLWHNDELDGSRWHKQQHGFLSLPVYVRDNTLLALGNNDQRPNYVWHEGTAFHLFNLQDGHEAVCEVPAADGSVIFTLKAARTGNTITVTGAGEAKNWTLCLRNVVKVNGLQDGSQAESEQGLVVKPQGNALTITLEGGSHHHHHH”, the “soluble on expression in E. coli” value was “soluble”. As to “MNWPLLYDMQRMLDRRIETEHGLMEEDLFARKQLAFLVELGELANETRCFKFWSIKPPAPAERVLEEYVDGLHFLLSLGLECGLFYEENEAPSAGRPLVEQFLAVFRAAERFGETRARGEYDALFAEYWRLGVALGFSSDDIEAAYRRKNEVNHKRQNERY”, the “soluble on expression in E. coli” value is given as “not soluble”.

In the case of “MESEQCPVGKIPHIRMDDGAGIEEFYTFGRILGQGSFGMVFEAIDKETGAKWAIKKVNKEKAGSSAMKLLEREVSILKTVNHQHIIHLEQVFESPQKMYLVMELCEDGELKAVMDQRGHFSENETRLIIQSLASAIAYLHNKDIVHRDLKLENIMVKSSFIDDNNEMNLNIKVTDFGLSVQKHGSRSEGMMQTTCGTPIYMAPEVINAHDYSQQCDIWSIGVIMFILLCGEPPFLANSEEKLYELIKKGELRFENPVWESVSDSAKNTLKQLMKVDPAHRITAKELLDNQWLTGNTLSSARPTNVLEMMKEWKNNPESDEETNTDEETEQSAVYSPSANTAKQPTNAAKKPAAESVGMTSSNSSSSKLLSAESKAEPEKSSETVGHASVAKTTLKSTTLFRGKKRL”, the “soluble on expression in E. coli” value is on record as “soluble”.

On to “MGSDKIHHHHHHMTTGKLSHAHLCGWLRFKHLTLLTTLAESRNMHATARVMHLSQPAASKMLRDLEVYFGFALFERLPRAMQPTELGEQVIRHAWILLNDMERLVDDINDLREGGYGQLLIGAIAAAAPEILPAAIARLKQARPRLSVSLQEQTSDRLLLELEHKRLDLVIGRLTHVSQHNLFDFEPLLDEPLRVVVRRDHPLTRRGEAPSLDELSHWPWILHPLSSPMRGVFESALAEEGIATPANVVETTSIQATLQLLQSSDMLAVLPRSVMRRPLAGGQYVVLERVIGKPLDYYGIITRRQEPLSPAVEELVVHLRRLAAEADGR”, for which the “soluble on expression in E. coli” value is recorded as “not soluble”. The entry for “SFGCLVAGRLVQTAAQQVAEDKFVFDLPDYESINHVVVFMLGTIPFPEGMGGSVYFSYPDSNGMPVWQLLGFVTNGKPSAIFKISGLKSGEGSQHPFGAMNIVRTPSVAQIGISVELLDSMAQQTPVGNAAVSSVDSFTQFTQKMLDNFYNFASSFAVSQAQMTPSPSEMFIPANVVLKWYENFQRRLAQNPLFWKT” is “soluble”; for “DNSVDLYFLMGLSGSAQGHLSNVQTLGSDLLKALNEISRSGRIGFGSIVNMTFQHILKLTADSSQFQRELRKQLVSGKLATPKGQLDAVVQVAICLGEIGWRNGTRFLVLVTDNDFHLAKDKTLGTRQNTSDGRCHLDDGMYRSRGEPDYQSVVQLASKLAENNIQPIFVVPSRMVKTYEKLTTFIPKLTIGELSDDSSNVAQLIRNAYSKL” it is “soluble”; for “MANFTAADVKRLRELTGAGMLACKNALAETDGDFDKAVEALRIKGAKDVGKRAERATAEGLVAAKDGALIELNCETDFVAKNAEFQTLADQVVAAAAAAKPADVDALKGASIGDKTVEQAIAELSAKIGEKLELRRVAIFDGTVEAYLHRRSADLPPAVGVLVEYRGDDAAAAHAVALQIAALRARYLSRDDVPEDIVASERRIAEETARAEGKPEQALPKIVEGRLNGFFKDAVLLEQASVSDNKKTVKALLDVAGVTVTRFVRFEVGQA” it is “not soluble”. With “MLTMKDVIREGDPILRNVAEEVVIPASEEDTNTLKEMIEFVINSQDPEMAEKYSLRPGIGLAAPQIGISKKMIAVHVTDTDGTLYSHALFNPKIISHSVERTYLQSGEGCLSVDREVPGYVPRYTRITVKATSINGEEVKLRLKGLPAIVFQHEIDHLNGVMFYDHINKENPFAAPDGSKPLER”, the “soluble on expression in E. coli” value is on record as “not soluble”. Consider “MGSDKIHHHHHHMITVSIVTYKTNLGELSKCLQSLISSLVSQIYIVDNSNERYIADFCQQYPNVIYIGSENVGYGAGHNQALRQVLNSGGKYHLILNSDVYFEPSVLEFLAAYMDAHADVAQVQPNVVYPDGEQQYTCRLLPTPANLIFRRFLPKRMVEKMNIRYQLKFDDHKKEMNVPYHQGSFMFFRLECFKKVGLFDERFFMYPEDIDITRRMHKWYRTMFVPSVTIVHAHRAASYKSKKMLKIHMVNMIKYFNKWGWIVDKERSAWNRKLLEELGYKK”, for which the “soluble on expression in E. coli” value was “not soluble”. For the sequence “MSLQRARCYLIGETAVVLELEPPVTLASQKRIWRLAQRLVDMPNVVEAIPGMNNITVILRNPESLALDAIERLQRWWEESEALEPESRFIEIPVVYGGAGGPDLAVVAAHCGLSEKQVVELHSSVEYVVWFLGFQPGFPYLGSLPEQLHTPRRAEPRLLVPAGSVGIGGPQTGVYPLATPGGWQLIGHTSLSLFDPARDEPILLRPGDSVRFVPQKEGVCEGHHHHHH”, the “soluble on expression in E. coli” value is “not soluble”. Take “SLRETVFRNARVLDVARGAYDDGQSVVVRDGVIVAVATDAHRLAGADAREIDVAGRVLMPGLCDAHVHVTAFTPDFALLGRTAPSYVTVRAQDILQGMIGRGFTTVRDAGGADWGLAKALAEGAIVGPRLLYCGHALSQTGGHADMRGPGQHNLDQCLCCAGLGQVCDGVPEMRRACREEIRKGATHLKLMVSGGVASPTDRIDSTQFALDELRAACEEAEAANIPVMAHAYTGRAAVRALEAGVSSIEHGNLIDQAAIDTLLRLDRWLVPTLATYHALAAEGVEAGMPAELNKKVYTVLEAGTEALRMAAKAGVKLVYGSDLLGTMQRHQLTEFAIRAVVQDPIDILRAATTQAAALFRMEDRIGAVRAGYLADLLIVDGDVLHSVAPWSAPEETIKMVMKDGEILVSR”: the “soluble on expression in E. coli” value is reported as “soluble”.

Regarding “MKIVIAPDSFKESLSAEKCCQAIKAGFSTLFPDANYICLPIADGGEGTVDAMVAATGGNIVTLEVCGPMGEKVNAFYGLTGDGKTAVIEMAAASGLMLVAPEKRNPLLASSFGTGELIRHALDNDIRHIILGIGGSATVDGGMGMAQALGVRFLDADGQALAANGGNLARVASIEMDECDPRLANCHIEVACDVDNPLVGARGAAAVFGPQKGATPEMVEELEQGLQNYARVLQQQTEINVCQMAGGGAAGGMGIAAAVFLNADIKPGIEIVLNAVNLAQAVQGAALVITGEGRIDSQTAGGKAPLGVASVAKQFNVPVIGIAGVLGDGVEVVHQYGIDAVFSILPRLAPLAEVLASGETNLFNSARNIACAIKIGQGIKN”, the “soluble on expression in E. coli” value was “soluble”.

(Values after the DeepSol protein solubility set.)
